This is an account of results in the supplement of paper PMC9170038.

The test system of the series is MS2 coat protein. Nature of the series: apparent KD of MS2 coat protein; designed switch direction (-1 OFF switch, 1 ON switch): 1; higher = weaker reporter binding. In a few lines: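 On Illumina chips, designed RNA switches with common flanks were made by stalled E. coli RNA polymerase. Titrations with SNAP-549-labelled MS2 coat protein, doubling from 0.7 or 1.5 nM to 3 µM, were done with no input, with 200 uM small-molecule ligand, or with an oligonucleotide input. Apparent KD is the median per design over clusters, from curve fits of normalised cluster fluorescence.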

Setting [1] is: input ligand: microRNA oligo, concentration not stated.
Setting [2] is: Eterna round: R95, input ligand: FMN 200 uM.
The mark [3] stands for this setting: Eterna round: R95, input ligand: microRNA oligo, concentration not stated.
The mark [4] stands for this setting: Eterna round: R95, input ligand: none.

Take “ACAUGAGGAUCACCCAUGUAACACCUGAAAAUAAAACGAACACAGGAUAUCCCGACAUGACGUUGGGAGAAGGGUGAUCGAAGA [Leenrien] (Eterna round: R96, puzzle: Same State NG 3)”: the “apparent KD of MS2 coat protein” value was found to be 269 nM (input ligand: FMN 200 uM), 202 nM under setting [1] and 29.6 nM (input ligand: none).

Take “ACAUGAGGAUCACCCAUGUAUAGAUUUGAAUGUUAAGUUACGUAGGAUAUCGUGUUUAGUAUGAUCGAGAAGGACGAUCUGAUA [JR_SSNG3_Sub066] (Eterna round: R96, puzzle: Same State NG 3)”: under setting [1], the “apparent KD of MS2 coat protein” value amounted to 18.6 nM.

For the sequence “ACAUGAGGCGCAGGAUAUACAGUUGUAUAACAUGAGGACAUGACAUGAGGAUCACCCAUGUCCCAGUAGAAGGGCGAACAUGAG [Same State NG2 S2] (Eterna round: R96, puzzle: Same State NG 2)”, the “apparent KD of MS2 coat protein” value is, setting by setting: (input ligand: FMN 200 uM) 172 nM; under setting [1], 102 nM; (input ligand: none) 144 nM.

Consider “ACCCAAAGUAUAUGGGAACGAGCUUUUUAACAUGAGGAUCACCCAUGUACUCGUCUUAUAAGCAGUCGAAAGACUGC [Sensor 100 - 3] (puzzle: Sensor for hsa-mir-208a)”, for which the “apparent KD of MS2 coat protein” value reads like this: under setting [2], 359 nM; under setting [3], 19.2 nM; under setting [4], 390 nM.

Consider “ACGCAGCUGGGUGAGGAUAUCGGUGGUAAAACAUGAGGAUCACCCAUGUCCGAAGCUCGGACUUCCGAGAAGGCGCCCGGCUGCG [Soinraesar] (puzzle: Same State 2)”, for which the “apparent KD of MS2 coat protein” value is, setting by setting: under setting [2], 11.4 nM; under setting [3], 104 nM; under setting [4], 103 nM.

Take “ACGCCCUCAGUAGGAUAUGGGAAAGGAAGUGUACCAGAAGGACUGGUUGAACAUGAGGAUCACCCAUGUUCAACGACAGGGCGA [PowerStrip SSNG 1.25] (Eterna round: R96, puzzle: Same State NG 1)”: the “apparent KD of MS2 coat protein” value (input ligand: FMN 200 uM) is 18.9 nM, the “apparent KD of MS2 coat protein” value under setting [1] stood at 14 nM and the “apparent KD of MS2 coat protein” value (input ligand: none) is 22.8 nM.

As for “ACUCUCACAGUAGGAUAUGUAGGAUAUGCCUACAUGAGGAUCACCCAUGUAAACAUGGCAGAAGGAUAGAAGGACUUACAUUGG [pwkr ssNG2 2FMN + 1F5.1] (Eterna round: R96, puzzle: Same State NG 2)”, the “apparent KD of MS2 coat protein” value turned out to be 495 nM (input ligand: FMN 200 uM), 577 nM under setting [1] and 762 nM (input ligand: none).

In the case of “ACUUACAUGGUAGGAUAUGUCCGUCUAGCUGACACAGAAGGGCCAAGCUCUACGACAUGAGGAUCACCCAUGUGAAGGAGAGGC [Eternabot solution 49] (Eterna round: R96, puzzle: Same State NG 1)”, the “apparent KD of MS2 coat protein” value was 15.1 nM (input ligand: FMN 200 uM), 13.6 nM under setting [1] and 18.3 nM (input ligand: none).

On to “AGAAAACAUGAGGAUCACCCAUGUAUAGUGAAUACAGGAUAUCACCGACGGAAUAAUUGGUGAGAAGGGUGAUCGC [Ceaqu] (puzzle: Same State 1)”, for which the “apparent KD of MS2 coat protein” value worked out at 21.2 nM under setting [2], 11.8 nM under setting [3] and 23.2 nM under setting [4].

In the case of “AGAGAACAUGAGGAUCACCCAUGUAGGAUGGGCAUAGGAUAUAGAAGGAUGAGGGAGAAACUAGAAGGAUGAUGGA [JR_SS1_Sub077] (puzzle: Same State 1)”, the “apparent KD of MS2 coat protein” value by setting is: under setting [2], 124 nM; under setting [3], 152 nM; under setting [4], 278 nM.

Consider “AGAGCCGGCACUGAGGAUAUUCAUAAUAAAACAUGAGGAUCACCCAUGUAGGCCAGAAGGCCUUGGGAGAAGGCAGGUCGGCUCG [Mat - Same State 2 - Mod of UCT - D68] (puzzle: Same State 2)”, for which the “apparent KD of MS2 coat protein” value under setting [2] came out at 17.3 nM, the “apparent KD of MS2 coat protein” value under setting [3] was found to be 122 nM and the “apparent KD of MS2 coat protein” value under setting [4] worked out at 200 nM.

In the case of “AGAUCAUGACGAGGAUAUGCAACAUGAGGAUCACCCAUGUAUGUUGCAGGACGCGUACGUCCAAUGUAGAAGGCGUCGUGGUCA [JL SSNG2 1.06] (Eterna round: R96, puzzle: Same State NG 2)”, the “apparent KD of MS2 coat protein” value worked out at 40.2 nM (input ligand: FMN 200 uM), 146 nM under setting [1] and 150 nM (input ligand: none).

Consider “AGAUGUUAAUCAGGAUAUGGGCACAUGAGGAUCACCCAUGUAAAUUAGAUACUAUGUGGUCAAGUCUAGAAGGGAUGGCUAACA [SameState NG2 #81] (Eterna round: R96, puzzle: Same State NG 2)”, for which the “apparent KD of MS2 coat protein” value by setting is: (input ligand: FMN 200 uM) 346 nM; under setting [1], 145 nM; (input ligand: none) 182 nM.

With “AGCAUACAUGAGGAUCACCCAUGUCAACUUAGUCGAGGAUAUGGGCAGCCGUGAGGCGAACCAGAAGGCGAAUUGA [Mat - Same State 1 - Mod of JL - D2] (puzzle: Same State 1)”, the “apparent KD of MS2 coat protein” value stood at 18.5 nM under setting [2], 28.1 nM under setting [3] and 26.2 nM under setting [4].

For the sequence “AGCGAGAUAGGCAAGGAUAUGCUGGGUUGCACAUGAGGAUCACCCAUGUCAUUGGUUAUGGCCGAGCAGAAGGUGCAUUCUCUUU [ak bound state near shape] (puzzle: Same State 2)”, the “apparent KD of MS2 coat protein” value reads like this: under setting [2], 19.5 nM; under setting [3], 75.6 nM; under setting [4], 66.5 nM.

Regarding “AGCUAAAACGAAGGAUAUACUGACAUGAGGAUCACCCAUGUCUACAUGAUUUAUUGUGAUCACAUGUAGAAGGUCGUACUAACA [SameState NG2 #22] (Eterna round: R96, puzzle: Same State NG 2)”, the “apparent KD of MS2 coat protein” value under setting [1] came out at 58.5 nM.

With “AGCUAGUACCGAGGAUAUACAUACAUGAGGAUCACCCAUGUAUACAUGAAUUAAUGAGACUACAUGUAGAAGGCGGUACUAGCA [JL SSNG2 1.22] (Eterna round: R96, puzzle: Same State NG 2)”, the “apparent KD of MS2 coat protein” value under setting [1] was 54 nM.

For the sequence “AGCUAUUAAUCAGGAUAUAGGGACAUGAGGAUCACCCAUGUAUACAUGAUGAAAUGUGGUCACCUCUAGAAGGGAUUACUAACA [SameState NG2 #42] (Eterna round: R96, puzzle: Same State NG 2)”, the “apparent KD of MS2 coat protein” value runs as follows: (input ligand: FMN 200 uM) 155 nM; under setting [1], 109 nM; (input ligand: none) 178 nM.

Turning to “AGCUAUUAAUCAGGAUAUGGUCACAUGAGGAUCACCCAUGUAUAGAUGAUAAAAUGUGGUCUACACUAGAAGGGAUUGCUAACA [SameState NG2 #59] (Eterna round: R96, puzzle: Same State NG 2)”, the “apparent KD of MS2 coat protein” value reads like this: (input ligand: FMN 200 uM) 89.5 nM; under setting [1], 78.9 nM; (input ligand: none) 106 nM.

As to “AGCUAUUACGAAGGAUAUAGUGACAUGAGGAUCACCCAUGUGUACAUGAGUAAUUGUGAUCACGUCUAGAAGGUUGUACUAACA [SameState NG2 #35] (Eterna round: R96, puzzle: Same State NG 2)”, the “apparent KD of MS2 coat protein” value (input ligand: FMN 200 uM) came to 181 nM, the “apparent KD of MS2 coat protein” value under setting [1] is 165 nM and the “apparent KD of MS2 coat protein” value (input ligand: none) amounted to 180 nM.

“AGCUAUUACGAAGGAUAUUCUGACAUGAGGAUCACCCAUGUCUUCAUGAUUUAUUGUGAUCACAUGAAGAAGGUUGUACUAACA [SameState NG2 #25] (Eterna round: R96, puzzle: Same State NG 2)”: the “apparent KD of MS2 coat protein” value runs as follows: (input ligand: FMN 200 uM) 106 nM; under setting [1], 130 nM; (input ligand: none) 93.1 nM.

For the sequence “AGCUAUUACGAAGGAUAUUCUGACAUGAGGAUCACCCAUGUCUUCAUGAUUUAUUGUGAUCACGUGGAGAAGGUUGUACUAACA [SameState NG2 #27] (Eterna round: R96, puzzle: Same State NG 2)”, the “apparent KD of MS2 coat protein” value runs as follows: (input ligand: FMN 200 uM) 90.4 nM; under setting [1], 77.9 nM; (input ligand: none) 91.4 nM.

As to “AGCUUGUAACAUGAGGAUCACCCAUGUACAAGCUUUUUGCUCGUUUUACCCGGGCCCGGCGAUUACACGGGCCCGGG [Optimized Design] (puzzle: Sensor for hsa-mir-208a version 2)”, the “apparent KD of MS2 coat protein” value by setting is: under setting [2], 10.1 nM; under setting [3], 9.89 nM; under setting [4], 9.67 nM.

On to “AGGACGAGCACAGGAUAUCCGCGGAACAGCCGCGGAGAAGGGUGAAGUCAUGGAAAGAAAAGACAUGAGGAUCACCCAUGUAAA [Ageteerer] (Eterna round: R96, puzzle: Same State NG 1)”, for which the “apparent KD of MS2 coat protein” value came out at 223 nM (input ligand: FMN 200 uM), 1320 nM under setting [1] and 680 nM (input ligand: none).

With “AGGCAAGCUUUUUGCUGGUAUGGAGGAUAACAUGAGGAUCACCCAUGUAUUGGAGGUGUUGUGGAUUUGAGAAAGAA [JR_SHM208A_Sub004] (puzzle: Sensor for hsa-mir-208a)”, the “apparent KD of MS2 coat protein” value came to 74 nM under setting [2], 94.6 nM under setting [3] and 103 nM under setting [4].

As for “AGGUUCCUGCUAGGAUAUCUAGGAUAUGGACGAGGAUUACCCGAGCAGGAUUACCGCACCAGAGGAGAGAAGGAGCAACAAGAG [pwkr ssNG2 2F5 2FMN.14] (Eterna round: R96, puzzle: Same State NG 2)”, the “apparent KD of MS2 coat protein” value turned out to be 1740 nM (input ligand: FMN 200 uM), 370 nM under setting [1] and 160 nM (input ligand: none).

Take “AGUAGGGCGUCAUAGGAUAUCCGGAAGAGUACAUGAGGAUCACCCAUGUCACUCCGCCAUGCAGAGGAGAAGGGUGGUGUUGUAC [Biedzage] (puzzle: Same State 2)”: the “apparent KD of MS2 coat protein” value is, setting by setting: under setting [2], 77.6 nM; under setting [3], 36.6 nM; under setting [4], 41 nM.

“AGUCCAGCCAGAGCUGGACAAAAGCAUGUACAUGAGGAUCACCCAUGUUCAUGUACAAGCUUUUUGCUCGUCUUAAU [Mat - hsa-mir-208a - Mod of JL - 59] (Eterna round: R96, puzzle: Sensor for hsa-mir-208a)”: the “apparent KD of MS2 coat protein” value (input ligand: FMN 200 uM) stood at 620 nM, the “apparent KD of MS2 coat protein” value under setting [1] turned out to be 15.3 nM and the “apparent KD of MS2 coat protein” value (input ligand: none) amounted to 583 nM.
